Substitutions are numbered along the chain they refer to. Numbers in names are those of the source.
B1: Antibody clone A4 (antibody, human IgG1, lambda, V domains shown)
VH: EVQLLESGGGLVQPGGSLRLSCAASGFTFSTYGMHWVRQAPGKGLEWLSYISGGSSYIFYADSVRGRFTISRDNSENALYLQMNSLRAEDTAVYYCARILRGGSGMDLWGQGTLVTVSS
VL: QSVLTQPPSASGTPGQRVTISCTGSTSNIGAGYKVYWYQQLPGTAPKLLIYGNINRPSGVPDRFSGSKSGTSASLAISGLRSEDEADYYCAAWDDSLSGLVFGGGTKLTVLG
notes: Tested as purified antibody; full chains are assembled here from VH/VL plus these; also called A4 ANTI-CD40 ANTIBODY
B2: Antibody B44 (antibody, V domains shown)
VH: B1 VH
VL: B1 VL with T26S, K34D
notes: Parent agonistic anti-CD40 antibody from the n-CoDeR library; Run alongside the IgG clones as 'B44 antibody' and detected with anti-human Ig on RAMOS cells; also called B44 antibody; original anti-CD40 antibody
B3: Antibody clone C4 (antibody, human IgG1, lambda, V domains shown)
VH: B1 VH with S63T
VL: B1 VL
notes: Same VL changes as A4; VH carries S63T; also called C4 ANTI-CD40 ANTIBODY
B4: Antibody clone H11 (antibody, human IgG1, lambda, V domains shown)
VH: B1 VH
VL: B1 VL with T26S, K34N, D95G, S96G, S98L
notes: also called H11 ANTI-CD40 ANTIBODY
B5: Antibody clone A5 (antibody, human IgG1, lambda, V domains shown)
VH: B1 VH
VL: B1 VL with T26S, K34H, N53S, A73G, D95S, L97S
B6: Antibody clone B9 (antibody, human IgG1, lambda, V domains shown)
VH: B1 VH
VL: B1 VL with T26S, K34N, D95G, S96G, S98L
B7: Antibody clone F6 (antibody, human IgG1, lambda, V domains shown)
VH: B1 VH
VL: B1 VL with T26S, K34D, G52R, D95G, S98L
B8: Antibody clone F9 (antibody, human IgG1, lambda, V domains shown)
VH: B1 VH
VL: B1 VL with T26S, K34G, D95G, S96T, S98T, V101L

target: T1, human CD40 on cells (human, UniProt P25942 21-277); assay: cell-based or functional assay
T1 sequence (P25942 21-277): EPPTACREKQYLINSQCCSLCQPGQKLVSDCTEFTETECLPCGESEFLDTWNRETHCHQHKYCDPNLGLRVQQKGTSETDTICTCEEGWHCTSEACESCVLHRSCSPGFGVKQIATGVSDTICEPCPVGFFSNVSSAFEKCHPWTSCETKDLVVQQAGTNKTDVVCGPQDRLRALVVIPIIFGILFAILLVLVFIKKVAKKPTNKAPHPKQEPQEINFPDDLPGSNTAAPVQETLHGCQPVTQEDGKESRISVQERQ

EC50 of CD80 up-regulation on monocyte-derived dendritic cells (FACS) | EC50 of CD86 up-regulation on monocyte-derived dendritic cells (FACS) | EC50 of MHC II up-regulation on monocyte-derived dendritic cells (FACS) | Maximum Fold Increase of CD80 on dendritic cells | Maximum Fold Increase of CD86 on dendritic cells | Maximum Fold Increase of MHC II on dendritic cells | Binder
0.17 µg/mL | 0.13 µg/mL | 0.14 µg/mL | 599 fold | 149 fold | 851 fold | B1
0.25 µg/mL | 0.37 µg/mL | 0.51 µg/mL | 584 fold | 132 fold | 811 fold | B2
0.031 µg/mL | 0.11 µg/mL | 0.04 µg/mL | 609 fold | 164 fold | 395 fold | B3
0.14 µg/mL | 0.14 µg/mL | 0.22 µg/mL | 641 fold | 195 fold | 481 fold | B4

target: T1, human CD40 on cells; assay: cell-based or functional assay; remark: another data set of the same source

Allo DC/T IFN-γ EC50 | Allo DC/T IFN-γ Max | Binder
0.04 µg/mL | 8.9 pg/mL | B1
0.2 µg/mL | 8.7 pg/mL | B2
0.08 µg/mL | 9.5 pg/mL | B5
0.03 µg/mL | 8.5 pg/mL | B6
0.12 µg/mL | 9 pg/mL | B3
0.03 µg/mL | 9.5 pg/mL | B4
0.15 µg/mL | 9 pg/mL | B7

target: T1, human CD40 on cells; assay: cell-based or functional assay; remark: another data set of the same source

Activation of B cells, EC50 (proliferation of CD19+ B cells, Cell titer-Glo) | Binder
0.16 µg/mL | B1
0.204 µg/mL | B2
0.29 µg/mL | B5
0.48 µg/mL | B6
0.21 µg/mL | B8
0.288 µg/mL | B3
0.46 µg/mL | B4
0.4 µg/mL | B7

target: T1, human CD40 on cells; assay: cell-based or functional assay; remark: another data set of the same source

Fold change in potency versus B44 antibody (rescue of huCD40/WEHI-231 cells from apoptosis and growth arrest) | Binder
46 fold | B1
19 fold | B5
38 fold | B6
52 fold | B3

target: T2, CD40hfc (R&Dsystems, USA) (UniProt P25942 21-193); assay: SPR, physiological pH and 37 C
T2 construct: Bought reagent; also called immobilized CD40 receptor; target; not shown: Fc part ('hfc') of the bought fusion
T2 sequence (P25942 21-193 limits assumed): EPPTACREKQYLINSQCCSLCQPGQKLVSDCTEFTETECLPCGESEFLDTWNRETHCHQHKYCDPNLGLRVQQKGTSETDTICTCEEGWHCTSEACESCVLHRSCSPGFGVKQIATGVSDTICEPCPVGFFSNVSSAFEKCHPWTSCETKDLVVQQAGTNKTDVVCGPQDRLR
Method: (§1) The affinity measures of purified antibodies by surface plasmon resonance using the Biacore 3000 instrument was performed according to manufacturer's protocols.
(§2) The CD40hfc (R&Dsystems, USA) was immobilized to the BIAcore sensorchip, CMS, using conventional amine coupling. The anti-CD40 antibodies of the invention, (serially diluted 1/3 from 1-0.012 nM) were analysed for binding in HBS-P (GE, BR-1003-68) at a flow rate of 30 μl/min at 37° C. and pH 7.3. The association was followed for 3 minutes and the dissociation for 10 minutes. Regeneration was performed twice using 50 mM NaOH for 30 seconds. The kinetic parameters and the affinity constants were calculated using BlAevaluation 4.1 software.

fold improvement of affinity versus B44 | Binder
~100 fold | B1
~100 fold | B5
~100 fold | B6
~100 fold | B8
~100 fold | B3
~100 fold | B4
~100 fold | B7

target: T1, human CD40 on cells; assay: flow cytometry (FACS) on RAMOS cells
Method: (§3) The human Burkitt's lymphoma cell line RAMOS was used for binding analysis (ECACC, Sigma Aldrich, USA). The unconjugated anti-CD40 antibodies of the invention were assayed for binding to RAMOS cells.
(§4) RAMOS cells, approximately 125,000 cells, were incubated with anti-CD40 antibody, serially diluted 1/3 from 30-0.0015 μg/ml, for 30 minutes at 4° C. The cells were washed twice with FACS buffer and the secondary antibody, anti-human Ig Rabbit F(ab′)2/FITC (DAKO, Glostrup, Denmark), was subsequently added to the cells for another 30 minutes at 4° C. The cells were washed and analysed on a FACScalibur instrument, according to the manufacturer's instructions (Becton Dickinson, USA) and then the mean fluorescent intensity (“MFI”) was determined.

fold increase in potency (binding to RAMOS cells) versus B44 | Binder
~100 fold | B1
~100 fold | B5
~100 fold | B6
~100 fold | B3
~100 fold | B4
~100 fold | B7

target: T1, human CD40 on cells; assay: flow cytometry (FACS) on RAMOS cells, anti-human Ig F(ab')2-FITC detection, MFI
Method: as §3, §4

EC50 | Binder
0.007 µg/mL | B1
0.38 µg/mL | B2
0.0062 µg/mL | B5
0.0049 µg/mL | B6
0.0061 µg/mL | B3
0.0044 µg/mL | B4
0.0058 µg/mL | B7

target: T2, CD40hfc (R&Dsystems, USA); assay: SPR (Biacore 3000), CD40hfc amine-coupled on chip, antibody as analyte, 37 C, pH 7.3
Method: as §1, §2

Kd | koff | kon | Binder
0.01 nM | 7.6e-05 s⁻¹ | 7.3e+06 M⁻¹ s⁻¹ | B1
1.7 nM | 0.0045 s⁻¹ | 2.7e+06 M⁻¹ s⁻¹ | B2
0.011 nM | 9.6e-05 s⁻¹ | 8.5e+06 M⁻¹ s⁻¹ | B5
0.014 nM | 0.00012 s⁻¹ | 8.5e+06 M⁻¹ s⁻¹ | B6
0.016 nM | 0.00013 s⁻¹ | 8.5e+06 M⁻¹ s⁻¹ | B4

target: T2, CD40hfc (R&Dsystems, USA); assay: SPR (Biacore 3000), CD40hfc amine-coupled on chip, antibody as analyte, 37 C, acetate buffer pH 5.4
Method: as §1, §2
Alternatively, samples were incubated in Acetate buffer pH 5.4, 10 mM Acetate, 150 mM NaCl, 0.005% T20, at 37° C.

Kd | koff | kon | Binder
0.02 nM | 0.00022 s⁻¹ | 1.1e+07 M⁻¹ s⁻¹ | B1
0.93 nM | 0.0055 s⁻¹ | 6e+06 M⁻¹ s⁻¹ | B2
0.022 nM | 0.00025 s⁻¹ | 1.1e+07 M⁻¹ s⁻¹ | B5
0.033 nM | 0.00032 s⁻¹ | 9.7e+06 M⁻¹ s⁻¹ | B6

— US20140348836A1 (published 2014)
